Results on six molecules are retold here after patent publication US20120003668A1, “HIGH RESOLUTION COMPLEX STRUCTURE AND ALLOSTERIC EFFECTS OF LOW MOLECULAR WEIGHT ACTIVATORS ON THE PROTEIN KINASE PDK1” (UNIVERSITAET DES SAARLANDES, priority 2008, published 2012).

Where a chain is given by its changes, count along the chain named. “Also recorded” adds a separate entry of the source. Non-standard residues stand in square brackets, D forms with d. Residues, ends and D or L forms follow the SMILES beside them. *: point of attachment. Biotin = O=C1N[C@H]2[C@H](CS[C@H]2CCCCC(=O)*)N1; pT = C[C@@H](OP(=O)(O)O)[C@H](N)C(=O)O; pS = N[C@@H](COP(=O)(O)O)C(=O)O

One data set concerns PDK1. In words: PDK1 protein kinase activity test with T308tide substrate. It counts as biochemical, human. As for the experimental part:
In brief, PDK1 activity assay was performed at room temperature (22° C.) in a 20 μl mix containing 50 mM Tris pH 7.5, 0.05 mg/ml BSA, 0.1% β-mercaptoethanol, 10 mM MgCl2, 100 μM [γ^32P]ATP (5-50 cpm/pmol), 0.003% Brij, 150 ng PDK1, and T308tide (from 0.1 to 1 mM). […] Experiments were repeated at least twice.

A further data set concerns the target T1, PDK1 catalytic domain (Homo sapiens, UniProt O15530).
T1 construct: The catalytic domain (CD) of PDK1 50-359 and its mutants
T1 sequence (O15530 50-359): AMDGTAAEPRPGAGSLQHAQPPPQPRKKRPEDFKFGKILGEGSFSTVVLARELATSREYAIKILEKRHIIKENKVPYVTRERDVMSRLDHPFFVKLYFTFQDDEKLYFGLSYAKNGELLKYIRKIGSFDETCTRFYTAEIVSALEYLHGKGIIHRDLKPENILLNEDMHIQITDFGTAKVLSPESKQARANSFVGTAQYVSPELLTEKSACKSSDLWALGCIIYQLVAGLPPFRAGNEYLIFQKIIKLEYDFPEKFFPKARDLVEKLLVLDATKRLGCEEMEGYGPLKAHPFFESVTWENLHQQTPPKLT
Briefly: TNP-ATP fluorescence probing of the ATP binding site conformation. Type of data set: biochemical. The note with it: 40 μM TNP-ATP, 15 μM PDK1 catalytic domain. The source says: Probing the conformation of the ATP binding site in PDK1: The activation of PDK1 by HM-polypeptides and small compounds is due to a change in the conformation of the enzyme. We probed the conformation of the ATP binding site in PDK1 by scanning the steady-state fluorescence of TNP-ATP/PDK1, in the presence or absence of P-HM-polypeptides, PIFtide, or small molecular weight compounds. Data were obtained in a Varian Cary Eclipse spectrofluorometer (excitation λ=479 nm; emission scanning, λ=500-600 nm; excitation slit=10 nm; emission slit=10 nm) at a rate of 200 nm/min, with 150 datapoints/100 nm scanning and 0.3 s averaging time. The incubation was performed at 20° C. in a buffer containing 50 mM Tris pH 7.5, 0.1 mM EDTA, 187 mM NaCl, 40 μM TNP-ATP, 15 μM PDK1 catalytic domain, 1 mM DTT and 1% DMSO. In the absence of PDK1, TNP-ATP produced approximately 1.5 arbitrary units (a.u.) of fluorescence, and the inclusion of PDK1 increased its fluorescence intensity to approximately 3.3 a.u. […] In preliminary tests, inclusion of 2.5 mM MgCl2 in the assay mix produced similar results. Data for each condition are the average of 3 scans.

Another data set has as its target T2, PDK1 CD wt (Homo sapiens, UniProt O15530).
T2 construct: PDK1 CD (50-359), wt (0.35 μM), PDK1 [Phe224Trp] or PDK1 [Thr226Trp] were injected onto the system; GST (N); made in house; host or cells: insect cells
T2 sequence (O15530 50-359): T1 sequence (O15530 50-359)
Briefly: Surface plasmon resonance (BiaCore) on biotin-P-HM-S6K chip. It counts as binding. Particulars: estimated from response units at equilibrium; read-out: Kd of direct binding of PDK1 CD wt to immobilized peptide. As for the experimental part: Surface Plasmon resonance (BiaCore) and alpha-screen interaction and displacement assays: Binding of GST-PDK1 to a P-HM-polypeptide derived from S6K1 shown in FIG. 6 was analysed by surface plasmon resonance on a BiaCore 3000 system using a streptavidin-coated Sensor chip (SA) and biotin-P-HM-polypeptide, as previously described (Biondi, R. M. et al., Embo. J. 20:4380-4390 (2001). The interaction of His-PDK1 with biotin-PIFtide and the displacement by compounds shown in FIG. 3 was performed using the alpha-screen Ni-Chelate kit (Perkin Elmer) on an Envision 2104 multilabel system (Perkin Elmer).
BiaCore analysis was performed as described previously (Biondi, R. M. et al., Embo. J. 19:979-988 (2000)). […] Since both mutants were performed on the same construct of PDK1, their mass should be very similar and therefore should also produce 600RU when all biotin-(P)HM-S6K polypeptides on the same chip are bound to the mutant PDK1 proteins. Unfortunately, when mutant PDK1 Phe224Trp and PDK1 Thr226Trp were analysed, the injection of the mutants at concentrations higher than 1.3 μM prompted unspecific effects, therefore making difficult the evaluation. […]

The target in a further data set is T3, PIFtide.
T3 chain: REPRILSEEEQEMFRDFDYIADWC

The target of data set [1] is biotin-P-HM-polypeptide derived from S6K1. In words: SPR (BiaCore), immobilised biotin-P-HM-S6K.
A further data set concerns the target T4, biotin-PIFtide (biotin (position not given)).
T4 construct: Biotinylated PIFtide
T4 peptide: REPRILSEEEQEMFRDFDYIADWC
In words: SPR (BiaCore), immobilised biotin-PIFtide. (In general: Surface plasmon resonance follows binding to a sensor surface in real time, without labels.)

In data set [2] the target is biotin-P-HM-polypeptide derived from S6K1. Briefly: SPR (BiaCore), biotin-P-HM-S6K chip; injected at 1.8 vs 1.3 µM.
The target is the same in data set [3]. In words: SPR (BiaCore), biotin-P-HM-S6K on streptavidin chip; mutant injected at 1.3 or 1.8 µM (which mutant at which concentration is not stated).
Data set [4] has the same target. In words: SPR (BiaCore 3000), biotin-P-HM-S6K on streptavidin chip.
The target is the same in data set [5]. Briefly: SPR (BiaCore 3000), biotin-P-HM-S6K on streptavidin chip, equilibrium responses.

Sequence of biotin-P-HM-polypeptide derived from S6K1 (peptide, as listed by the source limits assumed): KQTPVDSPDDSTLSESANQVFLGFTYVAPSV

With `O=C(O)/C=C(\CCc1ccc(Br)cc1F)c1ccccc1` [PS133], the “activation of PDK1” value with PDK1 (T308tide as substrate) is on record as “nor did they activate PDK1”. The “effect on TNP-ATP fluorescence intensity in the presence of PDK1” value on PDK1 catalytic domain was “did not produce any decrease; also recorded: did not affect”.

On to `CC(C)C[C@H](NC(=O)[C@H](Cc1ccccc1)NC(=O)[C@@H](NC(=O)[C@H](CCC(N)=O)NC(=O)[C@H](CC(N)=O)NC(=O)[C@H](C)NC(=O)[C@H](CO)NC(=O)[C@H](CCC(=O)O)NC(=O)[C@H](CO)NC(=O)[C@H](CC(C)C)NC(=O)[C@@H](NC(=O)[C@H](CO)NC(=O)[C@H](CC(=O)O)NC(=O)[C@H](CC(=O)O)NC(=O)[C@@H]1CCCN1C(=O)[C@H](COP(=O)(O)O)NC(=O)[C@H](CC(=O)O)NC(=O)[C@@H](NC(=O)[C@@H]1CCCN1C(=O)[C@@H](NC(=O)[C@H](CCC(N)=O)NC(=O)[C@H](CCCCN)NC(=O)CCCC[C@@H]1SC[C@@H]2NC(=O)N[C@@H]21)[C@@H](C)O)C(C)C)[C@@H](C)O)C(C)C)C(=O)NCC(=O)N[C@@H](Cc1ccccc1)C(=O)N[C@H](C(=O)N[C@@H](Cc1ccc(O)cc1)C(=O)N[C@H](C(=O)N[C@@H](C)C(=O)N1CCC[C@H]1C(=O)N[C@@H](CO)C(=O)N[C@H](C(=O)O)C(C)C)C(C)C)[C@@H](C)OP(=O)(O)O` [biotin-P-HM-S6K] (Biotin-KQTPVD[pS]PDDSTLSESANQVFLGF[pT]YVAPSV-OH; N-terminus and C-terminus assumed), for which the Kd (as a rule, the constant that tells how readily two partners part at equilibrium) on PDK1 CD wt was 500 nM.

In the case of “KTFCGTPEYLAPEVRR [T308tide, polypeptide substrate of PDK1 derived from the PDK1 phosphorylation site on PKB]”, the Km – broadly, the substrate concentration at which the rate is half of its maximum – in the data set with PDK1 (estimated, 22° C.) was more than 10 mM.

B1: PDK1 CD (50-359) [Phe224Trp] (enzyme)
chain: T1 sequence (O15530 50-359) with F175W
notes: also called PDK1[Phe224Trp]; PDK1 Phe224Trp
With B1, in the data set with PIFtide, the “PDK1 activity, T308tide as substrate” value is “the wild type protein and PDK1[Phe224Trp] were activated by PIFtide”. Besides, in the data set with PIFtide, the “stated: activates; PDK1 activity (%) with T308tide as substrate” value is “The bar without PIFtide is at 100 %. The two hatched PIFtide bars (labelled 2.5 and 40 µM) are both between 440 and 480 %”. Also, the percent of maximal binding of the wild type protein in data set [1] was 50%; with biotin-PIFtide, approximately 50%. The response units in data set [2] is 200 RU; in data set [3], more than 200 RU.

B2: PDK1 CD (50-359) [Thr226Trp] (enzyme)
chain: T1 sequence (O15530 50-359) with T177W
notes: also called PDK1[Thr226Trp]; PDK1 Thr226Trp
B2: in the data set with PIFtide, the “PDK1 activity, T308tide as substrate” value was “PDK1[Thr226Trp] was not activated by PIFtide”. The “stated: no activation; PDK1 activity (%) with T308tide as substrate” value with PIFtide is “The bar without PIFtide is at 100 %. The two hatched PIFtide bars (labelled 2.5 and 40 µM) stay at about 100 %”. Further, the percent of maximal binding of the wild type protein in [1] was 50%; with biotin-PIFtide, approximately 50%. Further, the response units in data set [2] is 200 RU; in data set [3], more than 200 RU.

B3: PDK1 CD (50-359) wt (enzyme)
chain: GPMDGTAAEPRPGAGSLQHAQPPPQPRKKRPEDFKFGKILGEGSFSTVVLARELATSREYAIKILEKRHIIKENKVPYVTRERDVMSRLDHPFFVKLYFTFQDDEKLYFGLSYAKNGELLKYIRKIGSFDETCTRFYTAEIVSALEYLHGKGIIHRDLKPENILLNEDMHIQITDFGTAKVLSPESKQARANSFVGTAQYVSPELLTEKSACKSSDLWALGCIIYQLVAGLPPFRAGNEYLIFQKIIKLEYDFPEKFFPKARDLVEKLLVLDATKRLGCEEMEGYGPLKAHPFFESVTWENLHQQTPPKLTA
notes: also called PDK1 50-359; PDK1 CD wt
As for B3, the “PDK1 activity, T308tide as substrate” value in the data set with PIFtide was “the wild type protein and PDK1[Phe224Trp] were activated by PIFtide”. For the same molecule, the “stated: activates; PDK1 activity (%) with T308tide as substrate” value with PIFtide is “The bar without PIFtide is at 100 %. The two hatched PIFtide bars (labelled 2.5 and 40 µM) are both between 350 and 400 %, with little difference between them”. Moreover, the figures for the percent of maximal binding of the wild type protein (in [1]; in the data set with biotin-PIFtide) were 50% and approximately 50%, respectively. The molecule further yielded a response units at maximum binding (PDK1 injected at 5.4 µM) in data set [4] of 600 RU. In [5], this molecule yielded an equilibrium dissociation constant (Kd) of 500 nM.
